“Also recorded” adds a separate entry of the source.
Experiments:
CFTR W1282X = assay: Two-electrode voltage clamp of CFTR W1282X in Xenopus laevis oocytes; assay type: cell-based, human
Description: (§1) In vitro cRNA transcription. G542XUGA, W1282XUGA, and WT CFTR pGEMHE (Mense et al., 2006; PMID:1703051) plasmids were linearized by 10× excess of NheI-HF restriction enzyme (site positioned 3′ of coding region)(New England BioLabs, USA) for 3 hours at 37° C. and purified using standard cDNA precipition methods. All cRNAs were transcribed using the mMessage mMachine T7 Kit (ThermoFisher Scientific; USA). Purification of the cRNA from the transcription reaction was conducted on columns from the RNeasy Mini Kit (Qiagen, Germany). Concentration was determined by absorbance measurements at 260 nm and quality was confirmed on a 1% agarose gel (RNase-free). All cRNA was queued to […] before use and all results were generated from ≥2 cRNA preparations.
(§2) In vitro tRNA transcription. […] Equimolar concentration of T7 oligo (5)-taatacgactcactata-3′) was annealed to ACE-tRNA PAGE-purified Ultramers (20 ug; Integrated DNA Technologies, Coralville, Iowa) coding for the ACE-tRNA and preceded by a T7 promoter (italics). Importantly, the three terminal nucleotides containing CCA were included (bold).
The total reaction volume was adjusted to 100 μl and the kit reagents were added in the following amounts: 10 μl of 10X T7-Scribe transcription buffer, 7.5 μl of each nucleotide (100 mM stocks), 10 μl of 100 mM Dithiothreitol, 2.5 μl ScriptGuard RNase Inhibitor, 10 μl T7-Scribe enzyme solution. After the reaction was incubated for 4-5 hours at 37° C., the DNA template was digested with 5 μl DNase (1 U/μl) provided with the kit for 30-60 min. The ACE-tRNA was extracted from the reaction with acidic phenol chloroform (5:1, pH 4.5) and precipitated with ethanol. […]
(§3) Two-electrode voltage clamp (TEVC) recordings. CFTR Cl^− currents were recorded in ND96 bath solution that contained (in mM): 96 NaCl, 2 KCl, 1 MgCl2, and 5 HEPES (pH 7.5) in the presence of a maximal CFTR activation cocktail, forskolin ([…]; adenylate cyclase activator) and 3-isobutyl-1-methylxanthine (1 mM; phosphodiesterase inhibitor). […]

CFTR G542X = assay: Two-electrode voltage clamp of CFTR G542X in Xenopus laevis oocytes; assay type: cell-based, human; settings: for rescued CFTR current relative to WT CFTR: compared to WT CFTR cRNA 25 ng
Description: as §1, §2
The total reaction volume was adjusted to 100 μl and the kit reagents were added in the following amounts: 10 μl of 10X T7-Scribe transcription buffer, 7.5 μl of each nucleotide (100 mM stocks), 10 μl of 100 mM Dithiothreitol, 2.5 μl ScriptGuard RNase Inhibitor, 10 μl T7-Scribe enzyme solution. After the reaction was incubated for 4-5 hours at 37° C., the DNA template was digested with 5 μl DNase (1 U/μl) provided with the kit for 30-60 min. The ACE-tRNA was extracted from the reaction with acidic phenol chloroform (5:1, pH 4.5) and precipitated with ethanol. The precipitates ACE-tRNA was pelleted, washed, dried and resuspended in 100 μl DEPC-treated water and further purified with Chrorna Spin-30 columns (Clontech, USA). The procedure yielded roughly 100 μl of ˜5 μg/μl ACE-tRNA. ACE-tRNAs were re-pelleted in 20 ug aliquots, washed, lyophilized and stored at −80° C. until use. All results were generated from ≥2 ACE-tRNA preparations.
Expression in Xenopus laevis oocytes. Xenopus laevis oocytes (stage V and VI) were purchased from Ecocyte (Austin, Tex.). Prior to injection, each ACE-tRNA pellet was resuspended in 2 μl of ddH2O and debris was pelleted at 21,000×g, 4° C. for 25 min. […]
as §3

| Molecule | Hill coefficient (CFTR W1282X; W1282X dose response) | CFTR chloride conductance, suppression of UGA PTC (CFTR W1282X; W1282X, 200 ng ACE-tRNA co-injected, forskolin and IBMX) | rescued CFTR current relative to WT CFTR (CFTR W1282X; W1282X, compared to WT CFTR cRNA 25 ng) | Hill coefficient (CFTR G542X; G542X dose response) | CFTR chloride conductance, suppression of UGA PTC (CFTR G542X; G542X, 200 ng ACE-tRNA co-injected, forskolin and IBMX) | rescued CFTR current relative to WT CFTR (CFTR G542X; G542X) | rescued CFTR current relative to WT CFTR (CFTR G542X; G542X, listed as ACE-tRNAGly) |
| --- | --- | --- | --- | --- | --- | --- | --- |
| Trpchr17.trna39: top performing tryptophan ACE-tRNA UGA suppressor, SEQ ID NO: 48 | 1.24 | highly efficacious | ~50% |  |  |  |  |
| Glychr19.trna2: top performing glycine ACE-tRNA UGA suppressor, SEQ ID NO: 53 (nucleic acid, chemistry not fully specified) GCGTTGGTGGTATAGTGGTTAGCATAGCTGCCTTCAAAGCAGTTGACCCGGGTTCGATTCCCGGCCAACGCA |  |  |  | ~1.4 | highly efficacious | WT-like current levels of expression | clear saturation at WT CFTR levels; also recorded: achieves WT-level of expressed CFTR current |

Source: patent publication US20230203482A1, “Methods of Rescuing Stop Codons via Genetic Reassignment with ACE-tRNA” (THE WISTAR INSTITUTE OF ANATOMY AND BIOLOGY, priority 2017, published 2023)
